Laboratory results from the Immune Epitope Database (IEDB).

What was measured:
HLA-B*51:01 [1] = test: IEDB peptide-MHC binding, purified MHC/direct/fluorescence; filed as Kd, often an IC50 or EC50 that approximates it; ≥ and ≤ were set here for values at or beyond the usual limits of such assays
HLA-A*02:12 = test: as above
HLA-A*69:01 [2] = test: as above
HLA-B*18:01 [3] = test: as above
HLA-A*02:01 [4] = test: as above
HLA-B*57:01 [5] = test: as above
HLA-A*03:01 = test: as above
HLA-A*02:16 = test: as above
HLA-B*27:03 [6] = test: as above
HLA-B*15:01 [7] = test: as above
HLA-A*02:19 = test: as above
HLA-B*35:01 = test: as above
HLA-B*07:02 = test: as above
HLA-A*26:01 [8] = test: as above
HLA-B*46:01 [9] = test: as above
HLA-B*39:01 [10] = test: as above
HLA-A*24:03 [11] = test: as above
HLA-A*02:11 = test: as above
HLA-A*02:03 = test: as above
HLA-A*68:02 [12] = test: IEDB peptide-MHC binding, purified MHC/competitive/fluorescence; filed as Kd, often an IC50 or EC50 that approximates it; ≥ and ≤ were set here for values at or beyond the usual limits of such assays
HLA-B*51:01 [13] = test: as above; conditions: source organism: Choclo virus
HLA-A*69:01 [14] = test: as above; conditions: source organism: Choclo virus
HLA-B*18:01 [15] = test: as above; conditions: source organism: Choclo virus
HLA-A*02:01 [16] = test: as above; conditions: source organism: Choclo virus
HLA-B*57:01 [17] = test: as above; conditions: source organism: Choclo virus
HLA-B*15:17 [18] = test: as above; conditions: source organism: Choclo virus
HLA-B*27:03 [19] = test: as above; conditions: source organism: Choclo virus
HLA-A*26:01 [20] = test: as above; conditions: source organism: Choclo virus
HLA-B*46:01 [21] = test: as above; conditions: source organism: Choclo virus
HLA-B*39:01 [22] = test: as above; conditions: source organism: Choclo virus
HLA-A*24:03 [23] = test: as above; conditions: source organism: Choclo virus
HLA-B*57:01 [24] = test: IEDB peptide-MHC binding, purified MHC/competitive/radioactivity; filed as Kd, often an IC50 or EC50 that approximates it; ≥ and ≤ were set here for values at or beyond the usual limits of such assays
HLA-B*15:01 [25] = test: as above; conditions: source organism: Dengue virus 2 Jamaica/1409/1983
HLA-A*01:01 = test: IEDB peptide-MHC binding, purified MHC/competitive/fluorescence; filed as Kd, often an IC50 or EC50 that approximates it; ≥ and ≤ were set here for values at or beyond the usual limits of such assays; conditions: source organism: Influenza A virus (A/swine/Finistere/127/99(H3N2))
HLA-B*15:17 [26] = test: IEDB peptide-MHC binding, purified MHC/direct/fluorescence; filed as Kd, often an IC50 or EC50 that approximates it; ≥ and ≤ were set here for values at or beyond the usual limits of such assays; conditions: source organism: Burkholderia mallei ATCC 23344
HLA-A*29:02 = test: as above; conditions: source organism: Burkholderia mallei ATCC 23344
HLA-A*68:02 [27] = test: as above
HLA-A*68:02 [28] = test: IEDB peptide-MHC binding, purified MHC/competitive/radioactivity; filed as Kd, often an IC50 or EC50 that approximates it; ≥ and ≤ were set here for values at or beyond the usual limits of such assays; conditions: source organism: Dengue virus 1 Brazil/97-11/1997
[29] = source organism: Vibrio parahaemolyticus AQ3810
[30] = source organism: Mycobacterium tuberculosis str. Haarlem
[31] = source organism: Dengue virus 2 Jamaica/1409/1983
[32] = source organism: Cryptosporidium parvum Iowa II
[33] = source organism: Burkholderia mallei ATCC 23344
[34] = source organism: Burkholderia mallei

Measured: Kd

EASTWLDIF
0.174 µM: HLA-B*15:01 [7]; [29]
≥ 20 µM: HLA-B*51:01 [1]; [29] | HLA-A*02:12; [29] | HLA-A*69:01 [2]; [29] | HLA-B*18:01 [3]; [29] | HLA-A*02:01 [4]; [29] | HLA-B*57:01 [5]; [29] | HLA-A*03:01; [29] | HLA-A*02:16; [29] | HLA-B*27:03 [6]; [29] | HLA-A*02:19; [29] | HLA-B*07:02; [29] | HLA-A*26:01 [8]; [29] | HLA-B*46:01 [9]; [29] | HLA-B*39:01 [10]; [29] | HLA-A*24:03 [11]; [29] | HLA-A*02:11; [29] | HLA-A*02:03; [29]
0.016 µM: HLA-B*35:01; [29]

EILWDVIPF
0.191 µM: HLA-B*15:01 [7]; [30]
0.003 µM: HLA-B*35:01; [30]
≥ 20 µM: HLA-B*51:01 [1]; [30] | HLA-A*02:12; [30] | HLA-A*02:01 [4]; [30] | HLA-B*57:01 [5]; [30] | HLA-A*03:01; [30] | HLA-A*02:16; [30] | HLA-B*27:03 [6]; [30] | HLA-A*02:19; [30] | HLA-A*26:01 [8]; [30] | HLA-B*46:01 [9]; [30] | HLA-B*39:01 [10]; [30] | HLA-A*24:03 [11]; [30] | HLA-A*02:03; [30]
6.5 µM: HLA-B*07:02; [30]

ESAEVEVYV
≤ 0.0001 µM: HLA-A*68:02 [12]; source organism: Vibrio vulnificus YJ016

HWMDATFNI
≤ 0.0001 µM: HLA-A*24:03 [23]
≥ 20 µM: HLA-A*02:12; source organism: Choclo virus | HLA-A*03:01; source organism: Choclo virus | HLA-A*02:16; source organism: Choclo virus | HLA-A*02:19; source organism: Choclo virus | HLA-A*02:11; source organism: Choclo virus | HLA-A*02:03; source organism: Choclo virus | HLA-B*51:01 [13] | HLA-A*69:01 [14] | HLA-B*18:01 [15] | HLA-A*02:01 [16] | HLA-B*57:01 [17] | HLA-B*15:17 [18] | HLA-B*27:03 [19] | HLA-A*26:01 [20] | HLA-B*46:01 [21] | HLA-B*39:01 [22]

ISQGAGWSL
0.472 µM: HLA-B*57:01 [24]; [31]

ISRMLINRF
0.0159 µM: HLA-B*57:01 [24]; [31]
0.178 µM: HLA-B*15:01 [25]

LASIDLKY
3.46 µM: HLA-A*01:01

LPLESCFGV
0.355 µM: HLA-B*51:01 [1]; [32]
≥ 20 µM: HLA-A*02:12; [32] | HLA-B*18:01 [3]; [32] | HLA-B*57:01 [5]; [32] | HLA-A*03:01; [32] | HLA-B*27:03 [6]; [32] | HLA-B*15:01 [7]; [32] | HLA-A*02:19; [32] | HLA-A*26:01 [8]; [32] | HLA-B*46:01 [9]; [32] | HLA-A*24:03 [11]; [32] | HLA-A*02:11; [32] | HLA-A*02:03; [32]

LTSRENLLLG
0.541 µM: HLA-B*57:01 [24]; source organism: Dengue virus 3 Martinique/1243/1999

QHAWPLPPL
≥ 20 µM: HLA-B*51:01 [1]; [33] | HLA-A*02:12; [33] | HLA-B*18:01 [3]; [33] | HLA-A*02:01 [4]; [33] | HLA-B*57:01 [5]; [33] | HLA-A*03:01; [33] | HLA-B*15:17 [26] | HLA-A*02:16; [33] | HLA-A*29:02 | HLA-A*68:02 [27]; [33] | HLA-B*27:03 [6]; [33] | HLA-B*15:01 [7]; [33] | HLA-A*02:19; [33] | HLA-A*26:01 [8]; [33] | HLA-B*46:01 [9]; [33] | HLA-A*02:03; [33]

QTSGTTTIFA
0.454 µM: HLA-B*57:01 [24]; source organism: Dengue virus 1 Brazil/97-11/1997
0.00212 µM: HLA-A*68:02 [28]

RVVRPWGSY
≥ 20 µM: HLA-B*51:01 [1]; [34] | HLA-A*02:12; [34] | HLA-A*69:01 [2]; [34] | HLA-B*18:01 [3]; [34] | HLA-A*02:01 [4]; [34] | HLA-A*02:16; [34] | HLA-A*68:02 [27]; [34] | HLA-B*27:03 [6]; [34] | HLA-A*02:19; [34] | HLA-A*26:01 [8]; [34] | HLA-B*46:01 [9]; [34] | HLA-B*39:01 [10]; [34] | HLA-A*24:03 [11]; [34] | HLA-A*02:11; [34] | HLA-A*02:03; [34]

STYWLMAGL
0.0005 µM: HLA-A*68:02 [12]; source organism: Yersinia pestis Nepal516
